*1 amine or outer side, *2 acyl side, *3 side chain or, on linkers, in order; H or OH if unused. Where no end group is shown, it is not given here. Side-chain parts run from the residue outwards. [ ]: non-standard residue; d: D form. The star is where a group is joined. C20 diacid = O=C(O)CCCCCCCCCCCCCCCCCCC(=O)*; C18 diacid = O=C(O)CCCCCCCCCCCCCCCCC(=O)*; γGlu = O=C(O)[C@H](CCC(=O)[*:2])N[*:1]; NMeQ = CN[C@@H](CCC(N)=O)C(=O)O; dtOrn = not defined here; AEEA = NCCOCCOCC(=O)O; Aib = CC(C)(N)C(=O)O
T1: human GIP receptor (human, UniProt P48546 22-466)
T1 sequence (looked up): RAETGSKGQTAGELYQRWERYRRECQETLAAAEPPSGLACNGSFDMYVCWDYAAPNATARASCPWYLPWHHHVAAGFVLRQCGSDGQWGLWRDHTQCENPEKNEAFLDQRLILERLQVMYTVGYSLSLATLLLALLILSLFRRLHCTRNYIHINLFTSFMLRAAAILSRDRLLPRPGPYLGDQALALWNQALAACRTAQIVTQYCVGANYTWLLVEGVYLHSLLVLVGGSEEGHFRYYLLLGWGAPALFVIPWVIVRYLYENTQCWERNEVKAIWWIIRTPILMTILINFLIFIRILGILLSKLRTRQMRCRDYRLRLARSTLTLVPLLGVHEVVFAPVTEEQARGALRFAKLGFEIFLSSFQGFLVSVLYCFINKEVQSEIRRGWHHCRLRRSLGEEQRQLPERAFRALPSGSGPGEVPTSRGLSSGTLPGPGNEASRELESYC

T2: human neuropeptide Y2 receptor (human, UniProt P49146 1-381)
T2 sequence (looked up): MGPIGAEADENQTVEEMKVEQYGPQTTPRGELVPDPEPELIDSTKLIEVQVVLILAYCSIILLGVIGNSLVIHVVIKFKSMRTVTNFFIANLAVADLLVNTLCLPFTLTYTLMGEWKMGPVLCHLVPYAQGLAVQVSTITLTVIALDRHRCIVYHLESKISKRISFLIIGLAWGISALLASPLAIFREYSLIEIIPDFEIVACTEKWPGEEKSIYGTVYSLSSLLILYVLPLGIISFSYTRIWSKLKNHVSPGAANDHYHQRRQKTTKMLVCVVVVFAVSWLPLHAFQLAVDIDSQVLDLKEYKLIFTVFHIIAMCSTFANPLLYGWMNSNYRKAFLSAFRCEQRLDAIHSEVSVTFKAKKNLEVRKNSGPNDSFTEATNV

B1: Compound 130 (peptide)
peptide: Y[Aib]EGTFTSDYSI[Aib]LEEEAQ[Aib]EFVRHLINK([AEEA-AEEA-γGlu-C18 diacid])[Aib]TRQRY-NH2
modifications: N-terminus assumed
SMILES: CC[C@H](C)[C@H](NC(=O)[C@H](CC(C)C)NC(=O)[C@H](Cc1c[nH]cn1)NC(=O)[C@H](CCCNC(=N)N)NC(=O)[C@@H](NC(=O)[C@H](Cc1ccccc1)NC(=O)[C@H](CCC(=O)O)NC(=O)C(C)(C)NC(=O)[C@H](CCC(N)=O)NC(=O)[C@H](C)NC(=O)[C@H](CCC(=O)O)NC(=O)[C@H](CCC(=O)O)NC(=O)[C@H](CCC(=O)O)NC(=O)[C@H](CC(C)C)NC(=O)C(C)(C)NC(=O)[C@@H](NC(=O)[C@H](CO)NC(=O)[C@H](Cc1ccc(O)cc1)NC(=O)[C@H](CC(=O)O)NC(=O)[C@H](CO)NC(=O)[C@@H](NC(=O)[C@H](Cc1ccccc1)NC(=O)[C@@H](NC(=O)CNC(=O)[C@H](CCC(=O)O)NC(=O)C(C)(C)NC(=O)[C@@H](N)Cc1ccc(O)cc1)[C@@H](C)O)[C@@H](C)O)[C@@H](C)CC)C(C)C)C(=O)N[C@@H](CC(N)=O)C(=O)N[C@@H](CCCCNC(=O)COCCOCCNC(=O)COCCOCCNC(=O)CC[C@H](NC(=O)CCCCCCCCCCCCCCCCC(=O)O)C(=O)O)C(=O)NC(C)(C)C(=O)N[C@H](C(=O)N[C@@H](CCCNC(=N)N)C(=O)N[C@@H](CCC(N)=O)C(=O)N[C@@H](CCCNC(=N)N)C(=O)N[C@@H](Cc1ccc(O)cc1)C(N)=O)[C@@H](C)O
B2: Compound 97 (peptide)
peptide: Y[Aib]EGTFTSDYSI[Aib]LEKQAQ[Aib]AFVRHLINK([dtOrn-γGlu-γGlu-γGlu-γGlu-γGlu-γGlu-C20 diacid])[Aib]TRQRY-NH2
modifications: reading uncertain
B3: Compound 96 (peptide)
peptide: YXEGTFTSDYSIXLEKQAQXAFVRHLINKXTRQXY
modifications: Aib at 2, 13, 20, 30; dOR at 34; Lys29 epsilon-amino: C18DA-gGlu-gGlu-gGlu-gGlu-gGlu; C-terminal amide
B4: Compound 119 (peptide)
peptide: YXEGTFTSDYSIXLEKQAQXAFVRHLINKXTRQRY
modifications: Aib at 2, 20, 30; aMeL at 13; Lys29 epsilon-amino: C18DA-gGlu-gGlu-gGlu-gGlu-gGlu-gGlu-eLys; C-terminal amide
B5: Compound 112 (peptide)
peptide: YXEGTFTSDYSEXLEKQAQXAFVRHLINKXTRQRY
modifications: Aib at 2, 13, 20, 30; Lys29 epsilon-amino: C18DA-gGlu-gGlu-gGlu-gGlu-gGlu-gGlu-eLys; C-terminal amide
B6: Compound 147 (peptide)
peptide: YXEGTFTSDYSIXLDRQAQXAFVRHLINKXTRQRY
modifications: Aib at 2, 13, 20, 30; Lys29 epsilon-amino: C18DA-gGlu-gGlu-gGlu-gGlu-gGlu-gGlu-eLys; C-terminal amide
B7: Compound 137 (peptide)
peptide: YXEGTFTSDYSIXLEKQAQXAFVRHLINKXTRQRY
modifications: Aib at 2, 13, 20, 30; Lys29 epsilon-amino: C18DA-TRX-gGlu-gGlu-gGlu-gGlu-gGlu-gGlu-eLys; C-terminal amide
B8: Compound 110 (peptide)
peptide: Y[Aib]EGTFTSDYSI[Aib]LEKQAQ[Aib]AFVRHLINK([AEEA-γGlu-γGlu-γGlu-γGlu-C18 diacid])[Aib]TRQRY-NH2
modifications: N-terminus assumed
SMILES: CC[C@H](C)[C@H](NC(=O)[C@H](CC(C)C)NC(=O)[C@H](Cc1c[nH]cn1)NC(=O)[C@H](CCCNC(=N)N)NC(=O)[C@@H](NC(=O)[C@H](Cc1ccccc1)NC(=O)[C@H](C)NC(=O)C(C)(C)NC(=O)[C@H](CCC(N)=O)NC(=O)[C@H](C)NC(=O)[C@H](CCC(N)=O)NC(=O)[C@H](CCCCN)NC(=O)[C@H](CCC(=O)O)NC(=O)[C@H](CC(C)C)NC(=O)C(C)(C)NC(=O)[C@@H](NC(=O)[C@H](CO)NC(=O)[C@H](Cc1ccc(O)cc1)NC(=O)[C@H](CC(=O)O)NC(=O)[C@H](CO)NC(=O)[C@@H](NC(=O)[C@H](Cc1ccccc1)NC(=O)[C@@H](NC(=O)CNC(=O)[C@H](CCC(=O)O)NC(=O)C(C)(C)NC(=O)[C@@H](N)Cc1ccc(O)cc1)[C@@H](C)O)[C@@H](C)O)[C@@H](C)CC)C(C)C)C(=O)N[C@@H](CC(N)=O)C(=O)N[C@@H](CCCCNC(=O)COCCOCCNC(=O)CC[C@H](NC(=O)CC[C@H](NC(=O)CC[C@H](NC(=O)CC[C@H](NC(=O)CCCCCCCCCCCCCCCCC(=O)O)C(=O)O)C(=O)O)C(=O)O)C(=O)O)C(=O)NC(C)(C)C(=O)N[C@H](C(=O)N[C@@H](CCCNC(=N)N)C(=O)N[C@@H](CCC(N)=O)C(=O)N[C@@H](CCCNC(=N)N)C(=O)N[C@@H](Cc1ccc(O)cc1)C(N)=O)[C@@H](C)O
B9: Compound 129 (peptide)
peptide: Y[Aib]EGTFTSDYSI[Aib]LEEQAQ[Aib]EFVRHLINK([γGlu-γGlu-γGlu-γGlu-C18 diacid])[Aib]TRQRY-NH2
modifications: N-terminus assumed
SMILES: CC[C@H](C)[C@H](NC(=O)[C@H](CC(C)C)NC(=O)[C@H](Cc1c[nH]cn1)NC(=O)[C@H](CCCNC(=N)N)NC(=O)[C@@H](NC(=O)[C@H](Cc1ccccc1)NC(=O)[C@H](CCC(=O)O)NC(=O)C(C)(C)NC(=O)[C@H](CCC(N)=O)NC(=O)[C@H](C)NC(=O)[C@H](CCC(N)=O)NC(=O)[C@H](CCC(=O)O)NC(=O)[C@H](CCC(=O)O)NC(=O)[C@H](CC(C)C)NC(=O)C(C)(C)NC(=O)[C@@H](NC(=O)[C@H](CO)NC(=O)[C@H](Cc1ccc(O)cc1)NC(=O)[C@H](CC(=O)O)NC(=O)[C@H](CO)NC(=O)[C@@H](NC(=O)[C@H](Cc1ccccc1)NC(=O)[C@@H](NC(=O)CNC(=O)[C@H](CCC(=O)O)NC(=O)C(C)(C)NC(=O)[C@@H](N)Cc1ccc(O)cc1)[C@@H](C)O)[C@@H](C)O)[C@@H](C)CC)C(C)C)C(=O)N[C@@H](CC(N)=O)C(=O)N[C@@H](CCCCNC(=O)CC[C@H](NC(=O)CC[C@H](NC(=O)CC[C@H](NC(=O)CC[C@H](NC(=O)CCCCCCCCCCCCCCCCC(=O)O)C(=O)O)C(=O)O)C(=O)O)C(=O)O)C(=O)NC(C)(C)C(=O)N[C@H](C(=O)N[C@@H](CCCNC(=N)N)C(=O)N[C@@H](CCC(N)=O)C(=O)N[C@@H](CCCNC(=N)N)C(=O)N[C@@H](Cc1ccc(O)cc1)C(N)=O)[C@@H](C)O
B10: Compound 114 (peptide)
peptide: Y[Aib]EGTFTSDYSI[Aib]LEKQAQ[Aib]AFVRHLINK([γGlu-γGlu-γGlu-γGlu-γGlu-γGlu-C20 diacid])[Aib]TR[NMeQ]RY-NH2
modifications: N-terminus assumed
SMILES: CC[C@H](C)[C@H](NC(=O)[C@H](CC(C)C)NC(=O)[C@H](Cc1c[nH]cn1)NC(=O)[C@H](CCCNC(=N)N)NC(=O)[C@@H](NC(=O)[C@H](Cc1ccccc1)NC(=O)[C@H](C)NC(=O)C(C)(C)NC(=O)[C@H](CCC(N)=O)NC(=O)[C@H](C)NC(=O)[C@H](CCC(N)=O)NC(=O)[C@H](CCCCN)NC(=O)[C@H](CCC(=O)O)NC(=O)[C@H](CC(C)C)NC(=O)C(C)(C)NC(=O)[C@@H](NC(=O)[C@H](CO)NC(=O)[C@H](Cc1ccc(O)cc1)NC(=O)[C@H](CC(=O)O)NC(=O)[C@H](CO)NC(=O)[C@@H](NC(=O)[C@H](Cc1ccccc1)NC(=O)[C@@H](NC(=O)CNC(=O)[C@H](CCC(=O)O)NC(=O)C(C)(C)NC(=O)[C@@H](N)Cc1ccc(O)cc1)[C@@H](C)O)[C@@H](C)O)[C@@H](C)CC)C(C)C)C(=O)N[C@@H](CC(N)=O)C(=O)N[C@@H](CCCCNC(=O)CC[C@H](NC(=O)CC[C@H](NC(=O)CC[C@H](NC(=O)CC[C@H](NC(=O)CC[C@H](NC(=O)CC[C@H](NC(=O)CCCCCCCCCCCCCCCCCCC(=O)O)C(=O)O)C(=O)O)C(=O)O)C(=O)O)C(=O)O)C(=O)O)C(=O)NC(C)(C)C(=O)N[C@H](C(=O)N[C@@H](CCCNC(=N)N)C(=O)N(C)[C@@H](CCC(N)=O)C(=O)N[C@@H](CCCNC(=N)N)C(=O)N[C@@H](Cc1ccc(O)cc1)C(N)=O)[C@@H](C)O

How the values were obtained:
Assay in all cases: cell-based or functional assay
human GLP-1 receptor = human GLP-1 receptor (human, UniProt P43220 24-463)
human GIP receptor = target: T1, human GIP receptor
[1] = target: T2, human neuropeptide Y2 receptor

EC50, CreLuc reporter, 100% hP (human GLP-1 receptor) [nM]	EC50, CreLuc reporter, 0.5% hP (human GIP receptor) [nM]	EC50, CreLuc reporter, 100% hP (human GIP receptor) [nM]	EC50, CreLuc reporter, 0.5% hP [1] [nM]	EC50, CreLuc reporter, 100% hP [1] [nM]	EC50, CreLuc reporter, 0.5% hP (human GLP-1 receptor) [nM]	Binder
2.3	0.5	10	75	789		B1
16.8		12.7	11.7	135	3.8	B2
1.7	0.3	1.7	23	125	0.9	B3
		0.8		43.7	0.1	B4
31.6	0.5	10.3		27.9		B5
2.3	0.2	5	11.1	86.3	0.3	B6
13.7	0.5		20.1	46.4		B7
2.3		3.8	14.2	51.4	0.7	B8
2.8	0.4	7.1	213	827	0.9	B9
10	0.5		82.1	657	1.8	B10
